The stoichiometry N is a count of units in the complex or per binding partner.

Test [1] concerns the target deuterated green fluorescent protein [GFP: P42212]. Briefly: small-angle neutron scattering (SANS); free protein in solution, about 5 mg/mL in Tris-buffer, h-GFP in D2O and d-GFP in H2O, 2-mm quartz cells, ambient conditions; Rg, P(r) and DAMMIF ab initio reconstruction.
Test [2] concerns the target hydrogenated green fluorescent protein [GFP: P42212]. The test is described as above.

For “deuterated green fluorescent protein (from UniProt P42212 2-238) (natural protein)”, in test [1], the stoichiometry N came to 2.
Regarding “hydrogenated green fluorescent protein (from UniProt P42212 2-238) (natural protein)”, the stoichiometry N in test [2] stood at 2.
